Results as given in patent US20110097326A1 (IRM, published 2011).
Numbering of substitutions follows the chain as printed. Several values for one entry are separate records, joined by “and”; a condition that tells them apart may be missing. Identical values can stand only once. Each block holds one binder with its values, some of them ahead of it.

Assays:
[1] = target: TrkB on rat intestinal epithelial (RIE)-TrkB cells; experiment: cell-based or functional assay
[2] = target: T1, recombinant Fc-TrkB antigen (human) (human, UniProt Q16620 32-430, limits assumed); experiment: SPR (Biacore S51), Fc-hTrkB amine-coupled to CM-5 chip, IgG in flow, global 1:1 Langmuir fit
T1 construct: Biotinylated for the ForteBio assays; also called Fc-hTrkB; human Fc-TrkB; not shown: Fc part
Procedure: Binding studies on the improved antibodies were performed by immobilizing Fc-hTrkB onto a Series S CM-5 Biacore sensor chip (certified) (Biacore #BR-1005-30). Covalent binding of the Fc-fusion protein was done with the ‘Amine Coupling Kit’ (Biacore #BR-1000-50). The Fc-Fusion protein was attached to the EDC-activated dextran surface at 5 μg/ml in 10 mM sodium acetate, pH 4.5 (Biacore #BR-1003-50) at a flow rate of 10 μL/min
A range of concentrations of improved antibodies were flowed over the Fc-TrkB captured chip in PBS plus 100 mM NaCl, 0.005% P20 (Biacore #BR-1000-54). The resulting sensorgrams were analyzed using the Biacore S51 Evaluation Software. Data from all concentrations was fitted globally to a 1:1 Langmuir model.
Although this antibody is bivalent, the binding was treated as a 1:1 event.

[3] = target: T2, TrkA-Fc fusion protein (human, UniProt P04629-2 34-407, limits assumed); experiment: ELISA on Trk-hFc fusion proteins, goat anti-human Fab-HRP detection [panel C]
T2 construct: not shown: Fc part
Procedure: (§1) FIG. 9A-D illustrate ELISA assays showing specific binding of NVP-LFD253, NVP-LFD254, NVP-LFC325 and NVP-LFC327 to human TrkB-Fc fusion protein but not to human […] or TrkC-Fc fusion proteins. Purified IgG at 2 μg/ml was evaluated for specificity by examining its interaction with three different Trk family members (TrkA, TrkB and TrkC). Secondary Ab are replicates that were blocked and treated with only the goat-anti-human Fab-HRP detection Ab.
(§2) IgG with human V-segments (e.g., NVP-LFD253, NVP-LFD254, NVP-LFC325, and NVP-LFC327) bind specifically to TrkB but not to TrkA or TrkC. Purified IgG antibodies at 2 μg/ml were evaluated for specificity by examining its interaction with three different Trk family members (TrkA, TrkB and TrkC). Secondary Ab are replicates that were blocked and treated with only the goat-anti-human Fab-HRP detection Ab. As shown in FIG. 9A-D, none of LFD253, LFD254, LFC325 or LFC327 bind to either of these related Trk family receptors.

[4] = target: T3, human TrkC-Fc fusion protein (human, UniProt Q16288 32-429, limits assumed); experiment: as above
T3 construct: not shown: Fc part
Procedure: as §1, §2

[5] = target: T1, recombinant Fc-TrkB antigen (human); experiment: BLI (ForteBio Octet), biotinylated Fc-TrkB on streptavidin sensors, IgG at 1E-8 M
Procedure: (§3) The binding kinetics of IgGs and Fab fragments were analyzed using a ForteBio Octet biosensor. Recombinant Fc-TrkB antigen was biotinylated using the EZ-link biotinylation kit (Pierce) according to the manufacturer's methods. The antigen was then coupled to streptavidin-coated sensors (ForteBio). Fab binding was monitored in real time using bio-layer interferometry analysis and software provided by the manufacturer. Affinities were calculated from the determined association and dissociation constants.
IgGs with human V-segments were also prepared from transient transfections of CHO cells. IgG preparations were purified and further characterized by kinetic comparison with the reference IgG A10F18.2. Binding kinetics for two of the IgGs with human V-segments were analyzed using a ForteBio Octet system for real-time label-free monitoring of protein-protein interactions.

[6] = target: T1, recombinant Fc-TrkB antigen (human); experiment: BLI (ForteBio Octet), biotinylated Fc-TrkB on streptavidin sensors, Fab at 1E-7 M
Procedure: as §3
(§4) Fabs with human V-segments were isolated from colony-lift binding assays and confirmed by antigen-binding ELISA. The Fab clones showing strong positive signals in antigen-binding ELISA were purified and further characterized by kinetic comparison with the reference Fab TR3-1. Binding kinetics were analyzed using a ForteBio Octet system for real-time label-free monitoring of protein-protein interactions.

[7] = target: T1, recombinant Fc-TrkB antigen (human); experiment: as above; remark: listed apart in the source
Procedure: as §3, §4

[8] = target: T2, TrkA-Fc fusion protein; experiment: ELISA on Trk-hFc fusion proteins, goat anti-human Fab-HRP detection [panel D]
Procedure: as §1, §2

[9] = target: T3, human TrkC-Fc fusion protein; experiment: as above
Procedure: as §1, §2

[10] = target: T2, TrkA-Fc fusion protein; experiment: ELISA on Trk-hFc fusion proteins, goat anti-human Fab-HRP detection [panel A]
Procedure: as §1, §2

[11] = target: T3, human TrkC-Fc fusion protein; experiment: as above
Procedure: as §1, §2

[12] = target: T2, TrkA-Fc fusion protein; experiment: ELISA on Trk-hFc fusion proteins, goat anti-human Fab-HRP detection [panel B]
Procedure: as §1, §2

[13] = target: T3, human TrkC-Fc fusion protein; experiment: as above
Procedure: as §1, §2

[14] = target: T1, recombinant Fc-TrkB antigen (human); experiment: blocking ELISA on coated Fc-TrkB; blocked molecule: Fab TR3-1 at 50 nM (two replicate series), detected with anti-human kappa-HRP [upper panel]
[15] = target: T1, recombinant Fc-TrkB antigen (human); experiment: blocking ELISA on coated Fc-TrkB; blocked molecule: Fab TR151-1 at 50 nM, detected with anti-human kappa-HRP [upper panel]

- EC50, anoikis assay on RIE-TrkB cells [1]: 41.8 ng/ml and 280 pM
- Kd [2]: 0.114 nM
- koff [2]: 4.85e-05 s⁻¹
- kon [2]: ~425000 M⁻¹ s⁻¹
- binding result [3]: no binding (tested: 2 ug/ml)
- binding result [4]: no binding (tested: 2 ug/ml)
- Kd [5]: 0.0335 nM
- koff [5]: 1.52e-05 s⁻¹
- kon [5]: 453000 M⁻¹ s⁻¹
B1: NVP-LFC325 (antibody, human IgG1, V domains shown)
VH: QVQLVQSGAEVKKPGASVKVSCKASGYTFTAYDMHWVRQAPGQGLEWMGWIDPNSGGTRYAQKFQGRVTMTRDTSISTAYMELSRLTSDDTAVYYCTGVTTWFAYWGQGTLVTVSS
VL: DIVMTQTPLSLPVTLGQPASISCRSSQSLLHSNGNTYLNWYQQTPGQPPRLLIYKISNRFSGVPDRFSGSGAGTDFTLKISRVEAEDVGVYYCMQGTHVPYTFGQGKLEIK
notes: IgG with human IgG1 constant region and human kappa constant region, from transiently transfected CHO cells; also called TR127 Vh & TR119 Vk

- Kd [6]: 31.9 nM
- koff [6]: 0.00458 s⁻¹
- kon [6]: 144000 M⁻¹ s⁻¹
- Kd [7]: 32.3 nM
- koff [7]: 0.00439 s⁻¹
- kon [7]: 136000 M⁻¹ s⁻¹
B2: Fab TR135-8 (Fab, V domains shown)
VH: B1 VH
VL: MDVVMTQSPLSLPVTLGQPASISCRSSQSLVHSNGNTYLNWYQQKPGQPPRLLIYKISNRFSGVPDRFSGSGAGTDFTLKISRVEAEDVGVYYCMQGTHEPYTFGQGKLEIK
notes: Fab with human V-segments, expressed in E. coli; detected with anti-human kappa

- Kd [6]: 29.7 nM
- koff [6]: 0.00366 s⁻¹
- kon [6]: 123000 M⁻¹ s⁻¹
- Kd [7]: 31.1 nM
- koff [7]: 0.00392 s⁻¹
- kon [7]: 126000 M⁻¹ s⁻¹
B3: Fab TR144-1 (Fab, V domains shown)
VH: B1 VH with N54R, G57D, R59S, A61K, S84H, T87R
VL: B2 VL
notes: Fab with human V-segments, expressed in E. coli

- Kd [7]: 18.6 nM
- koff [7]: 0.00395 s⁻¹
- kon [7]: 213000 M⁻¹ s⁻¹
B4: Fab TR151-1 (Fab, V domains shown)
VH: B1 VH with T97A, T101S
VL: B2 VL with N40S, Y42L, K45R
notes: as for B3

- EC50, anoikis assay on RIE-TrkB cells [1]: 26.9 ng/ml and 180 pM
- binding result [8]: no binding (tested: 2 ug/ml)
- binding result [9]: no binding (tested: 2 ug/ml)
- Kd [2]: 0.146 nM
- koff [2]: 5.76e-05 s⁻¹
- kon [2]: 393000 M⁻¹ s⁻¹
- Kd [5]: 0.0197 nM
- koff [5]: 7.9e-06 s⁻¹
- kon [5]: 401000 M⁻¹ s⁻¹
B5: NVP-LFC327 (antibody, human IgG1, V domains shown)
VH: B1 VH
VL: B1 VL with T7S, L30V, T44K, V99E
notes: IgG with human IgG1 constant region and human kappa constant region, from transiently transfected CHO cells; also called TR127 Vh & TR129 Vk

- EC50, anoikis assay on RIE-TrkB cells [1]: 4.1 ng/ml and 28 pM
- Kd [2]: 0.165 nM
- koff [2]: 3.25e-05 s⁻¹
- kon [2]: 197000 M⁻¹ s⁻¹
- binding result [10]: no binding (tested: 2 ug/ml)
- binding result [11]: no binding (tested: 2 ug/ml)
B6: NVP-LFD253 (antibody, human IgG1, V domains shown)
VH: B1 VH
VL: B1 VL with L30V, N39S, Y41L, T44R, V99E
notes: IgG with human IgG1 constant region and human kappa constant region, from transiently transfected CHO cells; also called TR127 Vh & TR137 Vk

- EC50, anoikis assay on RIE-TrkB cells [1]: 24 ng/ml and 160 pM
- Kd [2]: 0.117 nM
- koff [2]: 1.94e-05 s⁻¹
- kon [2]: 166000 M⁻¹ s⁻¹
- binding result [12]: no binding (tested: 2 ug/ml)
- binding result [13]: no binding (tested: 2 ug/ml)
B7: NVP-LFD254 (antibody, human IgG1, V domains shown)
VH: B1 VH with N54R, G57D, R59S, A61K, S84H, T87R
VL: B1 VL
notes: IgG with human IgG1 constant region and human kappa constant region, from transiently transfected CHO cells; also called TR143 Vh & TR119 Vk

- Kd [6]: 14.2 nM
- koff [6]: 0.00334 s⁻¹
- kon [6]: 235000 M⁻¹ s⁻¹
- Kd [7]: 15.1 nM
- koff [7]: 0.00317 s⁻¹
- kon [7]: 211000 M⁻¹ s⁻¹
B8: Fab TR139-2 (Fab, V domains shown)
VH: B1 VH
VL: B2 VL with N40S, Y42L, K45R
notes: as for B3

- Kd [6]: 35.6 nM
- koff [6]: 0.00422 s⁻¹
- kon [6]: 118000 M⁻¹ s⁻¹
B9: Fab TR134-4 (Fab, V domains shown)
VH: B1 VH
VL: B2 VL with V31L, K45T
notes: as for B3

- IC50 (read off the curve) [14]: ~6 nM
- IC50 (read off the curve) [15]: ~5 nM
- Kd [5]: 0.0379 nM and 0.0477 nM
- koff [5]: 1.44e-05 s⁻¹ and 1.89e-05 s⁻¹
- kon [5]: 379000 M⁻¹ s⁻¹ and 396000 M⁻¹ s⁻¹
B10: A10F18.2 IgG (antibody, V domains shown)
VH: QVQLQQSGAELVRPGASVTLSCKASGYTFTDYEMHWVKQTPVHGLEWIGTIDPETAGTAYNQKFKGKAILTAGKSSSTAYMELRSLTSEDSAVYYCTGVTTWFAYWGQGTLVTVSA
VL: DVVMTQTPLSLPVSLGDQASISCRSSQSLVHSNGNTYLHWYLQKPGQSPNLLIYKVSNRFSGVPDRFSGSGSGTDFTLKISRVEAEDLGVYFCSQGTHVPYTFGGGTKLEIKR
